PMC7007264

Target: Rad51-2A (Saccharomyces cerevisiae, UniProt P25454 1-400, S125A;S375A)
Assay: EMSA

Rad51-2A, sequence (P25454 whole entry S125A/S375A): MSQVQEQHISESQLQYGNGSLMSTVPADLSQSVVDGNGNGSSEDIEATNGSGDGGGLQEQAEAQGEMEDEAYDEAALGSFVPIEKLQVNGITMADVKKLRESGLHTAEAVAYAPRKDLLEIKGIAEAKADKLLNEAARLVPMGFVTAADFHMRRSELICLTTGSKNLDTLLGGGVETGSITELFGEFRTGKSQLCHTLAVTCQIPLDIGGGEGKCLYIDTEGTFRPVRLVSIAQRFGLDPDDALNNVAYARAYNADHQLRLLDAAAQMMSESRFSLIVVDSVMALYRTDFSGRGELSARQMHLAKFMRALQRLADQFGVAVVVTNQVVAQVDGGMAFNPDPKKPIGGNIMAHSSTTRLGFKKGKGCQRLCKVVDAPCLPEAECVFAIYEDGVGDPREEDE

B1: ssDNA EMSA probe (ssDNA)
DNA: CGGGTGTCGGGGCTGGCTTAACTATGCGGCATCAGAGCAGATTGTACTGAGAGTGCACCATATGCGGTGTGAAATACCGCACAGATGCGT
binding result: no binding
